Experimental data published in IntAct's records for PubMed 22151054.

B1: Myeloid leukemia factor 1 (Homo sapiens), P58340 (parent)
chain: MFRMLNSSFEDDPFFSESILAHRENMRQMIRSFSEPFGRDLLSISDGRGRAHNRRGHNDGEDSLTHTDVSSFQTMDQMVSNMRNYMQKLERNFGQLSVDPNGHSFCSSSVMTYSKIGDEPPKVFQASTQTRRAPGGIKETRKAMRDSDSGLEKMAIGHHIHDRAHVIKKSKNKKTGDEEVNQEFINMNESDAHAFDEEWQSEVLKYKPGRHNLGNTRMRSVGHENPGSRELKRREKPQQSPAIEHGRRSNVLGDKLHIKGSSVKSNKK

Variants of: B1
Conditions: with 1433e_human YWHAE
In the case of F33A, the “effect of a mutation on the interaction” value is reported as “decreasing interaction”.
